For one assay, the target named is Atg19 C-terminus (yeast) (UniProt P35193). The experiment in a line: SEC. Background: In gel filtration, larger molecules generally elute earlier.
Assay [1] concerns the target Atg19 (wild type full-length protein) (yeast) (UniProt P35193). The experiment in a line: ITC. In general terms: Isothermal titration calorimetry measures the heat released or taken up as one component is titrated into another.

pKd: −log10 of the molar value.

As usually defined, the pKd is the Kd on a negative log10 scale, so that one unit is a factor of ten. Read a low pKd as a large Kd. The substance “Atg8 (from UniProt P38182 1-117) (natural protein)” had a stoichiometry N (Atg8 molecules per 1 Atg19 C-terminus) in the assay with Atg19 C-terminus (yeast) of 4.14. Moreover, in assay [1], the pKd is 4.46.

Values taken from PMC4009068.
